Values quoted from earlier work as cited in publication PMC9441699 (Frontiers in Cellular and Infection Microbiology, 2022).

Test system: pseudotyped SARS-CoV

B1: Lactoferrin: antiviral milk protein (protein, UniProt P02788 20-710, looked up)
Lactotransferrin: GRRRSVQWCAVSQPEATKCFQWQRNMRKVRGPPVSCIKRDSPIQCIQAIAENRADAVTLDGGFIYEAGLAPYKLRPVAAEVYGTERQPRTHYYAVAVVKKGGSFQLNELQGLKSCHTGLRRTAGWNVPIGTLRPFLNWTGPPEPIEAAVARFFSASCVPGADKGQFPNLCRLCAGTGENKCAFSSQEPYFSYSGAFKCLRDGAGDVAFIRESTVFEDLSDEAERDEYELLCPDNTRKPVDKFKDCHLARVPSHAVVARSVNGKEDAIWNLLRQAQEKFGKDKSPKFQLFGSPSGQKDLLFKDSAIGFSRVPPRIDSGLYLGSGYFTAIQNLRKSEEEVAARRARVVWCAVGEQELRKCNQWSGLSEGSVTCSSASTTEDCIALVLKGEADAMSLDGGYVYTAGKCGLVPVLAENYKSQQSSDPDPNCVDRPVEGYLAVAVVRRSDTSLTWNSVKGKKSCHTAVDRTAGWNIPMGLLFNQTGSCKFDEYFSQSCAPGSDPRSNLCALCIGDEQGENKCVPNSNERYYGYTGAFRCLAENAGDVAFVKDVTVLQNTDGNNNEAWAKDLKLADFALLCLDGKRKPVTEARSCHLAMAPNHAVVSRMDKVERLKQVLLHQQAKFGRNGSDCPDKFCLFQSETKNLLFNDNTECLARLHGKTTYEKYLGPQYVAGITNLKKCSTSPLLEACEFLRK
  inhibition of pseudotyped SARS-CoV: 50%
